Test results reported in IntAct's records for PubMed 18007658.

B1: Syntaxin UFE1 (Saccharomyces cerevisiae), P41834 (parent)
chain: MMSDLTPIFRKYVAVIDDARNEQNGIDDHVERKQEDFGNSNETCEMFRDSFIKECARLLKFLVELNKVIKQIEKNYLDDFNMSDAEKDEFDMECRLQIQQYFKKFEFLENYEMERHNLSLKRFQSKSHRWSKILSNKNDNTKHVIHPQDIENGVYEFRLGVLRCLNLWIKYVSSKFTTIQQERLILENKMNFNSTPMPTLSNNADDFSADAIDISVSQSAPVETVQDEVKHYEETISKLTQEQLQVLETEHSELLNQKNEQLKKVETINKTILDIVNIQNELSNHLTVQSQNINLMLNNQDDIELNIKKGNKELRKAKRAAGRTAKMTTYGAIIMGVFILFLDYVG
partner: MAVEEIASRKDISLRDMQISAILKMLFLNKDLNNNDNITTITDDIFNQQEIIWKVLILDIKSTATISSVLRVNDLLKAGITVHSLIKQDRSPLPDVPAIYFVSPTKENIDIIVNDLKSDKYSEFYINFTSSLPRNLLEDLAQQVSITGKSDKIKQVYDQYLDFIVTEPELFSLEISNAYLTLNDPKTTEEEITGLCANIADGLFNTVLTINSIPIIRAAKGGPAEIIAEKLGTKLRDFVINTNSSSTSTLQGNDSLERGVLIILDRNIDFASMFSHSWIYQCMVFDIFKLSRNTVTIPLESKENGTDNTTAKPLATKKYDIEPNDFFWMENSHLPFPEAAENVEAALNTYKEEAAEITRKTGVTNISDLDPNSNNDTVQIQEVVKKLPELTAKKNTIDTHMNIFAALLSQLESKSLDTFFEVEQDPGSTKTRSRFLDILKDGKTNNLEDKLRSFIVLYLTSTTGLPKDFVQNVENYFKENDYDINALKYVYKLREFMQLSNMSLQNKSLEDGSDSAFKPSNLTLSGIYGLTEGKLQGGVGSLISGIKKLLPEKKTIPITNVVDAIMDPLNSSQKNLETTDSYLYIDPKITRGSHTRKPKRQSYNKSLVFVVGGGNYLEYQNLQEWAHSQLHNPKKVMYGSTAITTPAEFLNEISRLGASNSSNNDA
B2: Protein SLY1 (Saccharomyces cerevisiae), P22213 (parent)
chain: B1 partner
partner: B1 chain

Variants of: B1
Conditions: with sly1_yeast SLY1, P22213

Variant | effect of a mutation on the interaction
MMSDLTPIARKYVAVIDDARNEQNGIDDHVERKQEDFGNSNETCEMFRDSFIKECARLLKFLVELNKVIKQIEKNYLDDFNMSDAEKDEFDMECRLQIQQYFKKFEFLENYEMERHNLSLKRFQSKSHRWSKILSNKNDNTKHVIHPQDIENGVYEFRLGVLRCLNLWIKYVSSKFTTIQQERLILENKMNFNSTPMPTLSNNADDFSADAIDISVSQSAPVETVQDEVKHYEETISKLTQEQLQVLETEHSELLNQKNEQLKKVETINKTILDIVNIQNELSNHLTVQSQNINLMLNNQDDIELNIKKGNKELRKAKRAAGRTAKMTTYGAIIMGVFILFLDYVG [F9A] | disrupting interaction

Variants of: B2
Conditions: with ufe1_yeast UFE1, P41834

Variant | effect of a mutation on the interaction
L137R | disrupting interaction

Variants of: B2
Conditions: with ufe1_yeast UFE1, P41834
Remark: another data set of the same source

Variant | effect of a mutation on the interaction
L137R | decreasing interaction
